Source: the DeepSol protein solubility set

Assay: soluble on expression in E. coli; label from the status in PepcDB or PDB records

| Sequence | soluble on expression in E. coli |
| --- | --- |
| MAISSRNTLLAALAFIAFQAQAVNVTVAYQTSAEPAKVAQADNTFAKESGATVDWRKFDSGASIVRALASGDVQIGNLGSSPLAVAASQQVPIEVFLLASKLGNSEALVVKKTISKPEDLIGKRIAVPFISTTHYSLLAALKHWGIKPGQVEIVNLQPPAIIAAWQRGDIDGAYVWAPAVNALEKDGKVLTDSEQVGQWGAPTLDVWVVRKDFAEKHPEVVKAFSKSAIDAQQPYIANPDVWLKQPENISKLARLSGVPEGDVPGLVKGNTYLTPQQQTAELTGPVNKAIIDTAQFLKEQGKVPAVANDYSQYVTSRFVQ | not soluble |
| MAITNIKCVIFDCDGTLVDSERLCCQALVNVFNQHGAELTMEECVSHFKGGKLADILLDTKELMNINVPIDVLEPQYRTEVQKLFVRHLQPMDGAKRLIQFLDSHNIEYCVASNGPKDKIEHALELTGLLDAFKGKVFSAFEANSWKPEPDLIMYSAMSMGFLPSDCLYIDDTPKGVEAGLNAGIKTVQLFNGEAINRVDDDRVIRIQHLDELKEQLMGCSV | not soluble |
| MAKDIKFSEEARRSMLRGVDTLANAVKVTLGPKGRNVVLEKKFGSPLITNDGVTIAKEIELEDAFENMGAKLVAEVASKTNDVAGDGTTTATVLAQAMIREGLKNVTAGANPMGLRKGIEKAVVAAVEELKTISKPIEGKSSIAQVAAISAADEEVGQLIAEAMERVGNDGVITLEESKGFTTELDVVEGMQFDRGYASPYMITDSDKMEAVLDNPYILITDKKISNIQEILPVLEQVVQQGKPLLIIAEDVEGEALATLVVNKLRGTFNVVAVKAPGFGDRRKAMLEDIAILTGGEVITEELGRDLKSATVESLGRAGKVVVTKENTTVVEGVGSTEQIEARIGQIRAQLEETTSEFDREKLQERLAKLVGGVAVIKVGAATETELKERKLRIEDALNSTRAAVEEGIVAGGGTSLMNVYTKVASIVAEGDEATGINIVLRALEEPVRQIAINAGLEGSVVVERLKGEKVGVGFNAATGEWVNMLETGIVDPAKVTRSALQNAASVAAMFLTTEAVVADKPEPNAPAMPDMGGMGMGGMGGMM | not soluble |
| MAKEKARYFTFLLYPESIPSDWELKLETLGVPMAISPLHDKDKSSIKGQKYKKAHYHVLYIAKNPVTADSVRKKIKLLLGEKSLAMVQVVLNVENMYLYLTHESKDAIAKKKHVYDKADIKLINNFDIDRYVTLDVEEKTELFNVVVSLIRAYTLQNIFDLYDFIDENGETYGLTINLVNEVIAGKTGFMKLLFDGAYQRSKRGTKNEER | soluble |
| MAKGSSDKDNGYGNIRTSTSLSICCQDSHLTTPIAPIAPELYSLKVPKDYTPETTSTMRRSLESRLAWLGRQSYVFRSLKQLETVTHNATIRTFFWKDGSVSSSTGGNDGFWIKDELHAGA | not soluble |
| MAKGTPVTLTTNTEGATIYYTLDGSNPTNKSVRYNGRIVVNENSVIKAIAEKEGLTSSAISTFSFVIVNNEPVRIHDIQGKSHLSPYNGKKVYNVEGVVTALDKNGFYIEDNQPDNDPATSEGMYVYKKDANVAVGDLIQVDGVVEEYVGPGYAERFDTDLTTTEIKASRVVVIAKDQVLPAPIVLGENGVKIPDQIIDNDAFGLFDPNEDAIDFYESVEGMRVTMPTPKIIAPQKNGNLYVTVKNGGNKVVTKYGTPVLDENQLNPERLSVKVPRDYVAKVGDTFTGDITGVVGYDYGSFRIAPITELPSVVDGGFKQIGANIQPRLEHHHHHH | not soluble |
| MAKHGADEPSSRSGSPDREGRASEDRSLLHQRLAVRELIDTEVSYLHMLQLCASDIRSRLQQLPQGDLDVLFSNIDDIIKVNSRFLHDLQETASKEEEQVQLVGNIFLEFQEELEQVYKVYCASYDQALLLVDTYRKEPELQRHIQGIVEAVVPQAGSSGLSFLLVIPLQRITRYPLLLQKILENTVPDASAYPVLQRAVSALQDVNTNINEYKMRKEVASKYTKVEQLTLRERLARINTHTLSKKTTRLSQLLKQEAGLIPRTEDKEFDDLEERFQWVSLCVTELKNNVAAYLDNLQGAVGFYHWLTPTQMIDGLALGESTPGPLIMVVAFVGFLAAYNHSLLGAEHQFIAVLQDVRDHRITQVRAAEILNLSTRQITRLLQKLNQDGVSGLAHASRGQPGHHRHDELLKSKCLSIISEHLLGFGPTLAHEKLSSIFDLNIPVETVRRWMMANDLWIPRSKRLKRPYQPRYNRDCFGELIQIDGSYHDWFEGRAAKCCLLVYIDDATGKLLHLRFCEAETTFDYMLSTRAYIEQYGKPLAFYSDKHSVFRVNQKSRKDSQITQFGRILNELNIDIIFANSPQAKGRVERANRTLQDRLIKEMRLEGISSIAEANAWLPCFIEHFNQKFAKCARNSKNLHRSLTESDAELEDIFTWQEPRKVTKNLTITYDKCIYLLEPTELNHKLVGQYISFLEYPDGTVALMHEGRKINYSVFNKLAGLQQNEVVENKRLGSVLAHIQQQHEELEKQNKRSRLKKSMPSRKAQKAVIEQRKLNPVLDSCG | soluble |
| MAKIALIGASGNAGSRILKELSDRGHQVTAIARNPEKIAALPNVVAKKGDVFDQAALSELLKGHDAVISSVHFTASDPATLIEAVRASGVQRYLVVGGAGSLEIAPGQRVVDLPDFPAAYKAEATKGAEFLDKLKQEKQLDWTFLSPSAEFVPGERTGKFRIGKDNLLSNEQGSRISFEDYAIALADEIEKPQHSRQRFTVGY | not soluble |
| MAKKVLIISSSPRKGGNSDMLCDEFMKGVLETGNEVEKIFLKEKVIHPCTGCSVCSMYGKPCPQKDDAAGIVEKMIAADVIVMATPVYFYTMCGQMKIMIDRCCARYTEITNKEFYFIIAAAENDKGMMERTIDGFRGFLDCLENPQEKGVIYGIGAWKVGEIKDTPYMQEAYEMGKMV | not soluble |
| MAKKVRSVHECSECGYSSPKWLGRCPECGSWGSMEERTVGESGGAARAAVSGAAPAGLTPTSPAVPIGKIVASQATSISTGIGELDRVLGNGIVPGSVVLMAGEPGVGKSTLLLEVASRWASMKEGDGTRTALYVTAEESAGQVRLRAERTAAVKDTLYLAAESNLDVVFGHVNQVKPSLLIVDSVQTMHAAGVEGVAGGVAQSRAVTAALTTLAKTSGIPILLVGHVTKDGNVAGPRVLEHLVDVVLNFEGDRHSSLRMLRGIKNRFGATDEVGCFEQQSDGIKEVPDPSGLFLSHRGSTPDGTAVTVAMDGVRPLLAEVQSLLVDAPSKNPRRVVTGLDANRVPMVLAVLSARAGRQTQGKDAYVATVGGMKVGEPATDLAVALATASALAKKPLPDKTVVLGEVGLAGEIRRVPNVDRRLAEAERLGYEKAVIPGGSGIKQTSLRVIEASTLAEALAAVSLLEHHHHHH | not soluble |
| MAKLFAYQIGQNPRIQTDLLVDPQLFEDEHGCMGAVGFGLADCVQTGMFTDIEVIKRYLHEATYVFINGDFDRLSYLEIGIALSLGKTLYVITMNPNVTKEDLGIPFDNATIEFLSPSAFTERIHETEAAEN | not soluble |
| MAKNGGFSLFAKKEKRFIFEGRHSASDKLVNGEVSAFTEEEARKKLAKRGIRPLQITRVKTSSKRKITQEDITVFTRQLSTMIKAGLPLMQAFEIVARGHGNPSMTEMLMEIRGEVEQGSSLSRAFSNHPKYFDRFYCNLVAAGETGGVLESLLDKLAIYKEKTQAIRKKVKTALT | not soluble |
| MAKNTLSFVCQNCGAAYNRWQGKCESCGEWNTLAEEDTSGSVPVSIRSKRKGRTFALESLAGKSPDAPRLSSGMTELDRVTGGGFVRGSVLLVGGDPGIGKSTLLTQATSLMARAGHRIVYISGEEAIAQVRLRAERLGLSDAPVQLAAETSVEDIVSTLSEGAVPRLIVIDSIQTMWTDTVESAPGTVTQVRASAQALIRFAKKTGAAIILVGHVTKDGQIAGPRVVEHMVDAVMSFEGEGSQQFRILRAVKNRFGPTDEIGVFEMTGLGLREVTNPSELFLSERDLGTPGTAVFAGIEGTRPVLVELQALVAPTSLGTPRRAVVGWDPSRLSMVLAVLEAHCGVKLSGHDVYLNVAGGLRIHEPAADLAAAAALVSSLVNAQLPTDAVYFGEISLSGVVRPVAQTPARLKEAAKLGFQRAVLPESARGEAGGDAGLSLNAVNSLTTLVAEIAARGSRRGESGGSAEKNATPARFRRGEGLEHHHHHH | not soluble |
| MAKPFTPEQREELKTRIVELVHQDGRVTIRQLSDETGISRASVGRLCIELVASGDVYNSGYGLFPSEQARKDWQSARKKLSRVKVRKPVVVDPDLIWSLPDGEIRRYDRRLNIICRECRKSEAMQRVLAFYQGNFQEAIL | not soluble |
| MAKPIPVKVVVLTTFEIGAVTGDRPGEFQPWVEGLPLTETIAVPGLRHPARYSPKDGVLGVMTDMRARARESVAALLLDKRFDFSKTYWLVAGIAGVDPKAASIGSAAWARYVVDADPIYEVDDREIPADWPYGLYALETERPNVKGSAEGSSGMVWALNWRLVDWAYGLTAKVEIPDHPGLAALRAPYVGDPNAQRPPFVLKGEALGATRFWHGAKRTQWAQDWVKLWTDGAGVFVMTDCEDQGILDVLDLYAKAGRVDFQRVMVLRTASNYSRPPLGAPAFPRAFHDEGAVSAFDSAYRVGSVVVRELTARWDRYEANTPDMTAIGGTAKLEHHHHHH | not soluble |
| MAKPLMAKATAVWLVDNTTISFKQIADFVGMHELEIQGIADGDVAAGVKGFDPIANNQLTQEEIDKAEQNPLHKLKLKFNPAAAGEEKRRGPRYTPLSKRQDRPNAILWLVKFHPELSDGQIAKLVGTTKPTIQSIRERTHWNISNMQPIDPVALGLCRQSELDSVVQKAAAKKAAEGGVMSDDERRKLVSTEQSLGMDTGPRIPTAIEGLENFSLSEPISTSDDDEEDHRSIADADSFFNLPKGGTDDEDEDDDPRYLEHHHHHH | soluble |
| MAKPSTSLLKRRLDIAEIVRKNGEIKVDDLAEMLSVSGVTIRNDLNYLEQQGYLKRSFGGAIYTAQPVRAAVSHEVVQSQALEHSVELELAKQVARLVCDDDTVFLGAGEVLRKALPFLGDYRDLCLIINDLSHVAPARDYIDGEIVLLGGVLGHSGQALGGEIAIQSLQQFQPSCCLVMVDHISEDGTLNVKNESAAALLSECLRLSGQSIAVVAQRPIHDVARYPVGKLNTLSAIITPQIVAAEYHSRFLADGLTNSYTNNECLTWINPTLHQARLEHHHHHH | not soluble |
| MAKQELGTKRVDPETGKKFYDLNRDPIVSPYTGISYPRSYFEVAAAEANSEEEVDTEELDTALEKSAFMLLEDDGDDPKDDDLPDLEDSDVDLGDDDDTFLSHDEDDEDDDVTDILGGGVSKDDDS | not soluble |
| MAKRDYYEVLGVSRDAEEREIKKAYKRLAMKFHPDRQSEDKNAEEKFKEAKEAYEILTDAQKRAAYDQYGHAAFEQGGMGGGGFGGGGGGADFSDIFGDVFGDIFGGGRRQQRASRGSDLRYNMDLTLEEAVRGVTKEIRIPTLDECDVCHGSGAKPGSSPVTCPTCHGAGQVQMRQGFFTVQQACPHCHGRGQIIKDPCNKCHGHGRVEKSKTLSVKIPAGVDTGDRIRLSGEGEAGEHGAPSGDLYVQVQVKAHPIFEREGNNLYCEVPINFAMAALGGEIEVPTLDGRVKLKIPAETQTGKMFRMRGKGVKSVRGGSQGDLLCRVVVETPVSLSEKQKQLLRELEESFVGAAGEKNSPRAKSFLDGVKKFFDDLTR | not soluble |
| MAKRIQFSTVGGPEVLEYVDFEPEAPGPQAVVVRNKAIGLNFIDTYYRSGLYPAPFLPSGLGAEGAGVVEAVGDEVTRFKVGDRVAYGTGPLGAYSEVHVLPEANLVKLADSVSFEQAAALMLKGLTVQYLLRQTYQVKPGEIILFHAAAGGVGSLACQWAKALGAKLIGTVSSPEKAAHAKALGAWETIDYSHEDVAKRVLELTDGKKCPVVYDGVGQDTWLTSLDSVAPRGLVVSFGNASGPVSGVNLGILAQKDSVYVTRPTLGSYANNAQNLQTMADELFDMLASGKLKVDGIEQYALKDAAKAQIELSARRTTGSTILIP | soluble |
| MAKRIVAMSSTHIAMLDAIGEVRCITGVSGIDYISNPDIQARRDSIGDVGYEGNINYELLLSLDPDLVLLYGVNGASAMESKLEELDIPFMYVGDYLEESPLGKAEWMVVLSEVTGKREKGEKAFAAIPVRYNALKKKVADSTLEHHHHHH | soluble |
